Experiment: protease stability score; higher = more stable; yeast display proteolysis, trypsin and chymotrypsin;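 further: relative to predicted unfolded state with 0 unfolded-like and 1 meaning tenfold more protease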

Sequence	protease stability score
SDIDNEADNLLRELSEVHQTGDWKTLLELADPNVQLIVNGRDLHGWEHLARRFTELRIHHVDHRIKHIHSYDGRVDLDGRLHYDGEINGRRDILHHEVSVHTKKIDGRWIISNIQIN	-0.21
SDIEDESEKFVRMFLHSYETGDWKSLREMFDPNARTIIGDKHTHGRELAVELWEDLFKRLGIKHIEVTHVHIRVINGRIDVRIEVHLNQGEFRYHIIIIVHVTKFNGVWLLTEFRIEEK	1.27
SDIEDHAIEFFSNELWSWHTGDEHDLKKLLDPNARIYINGVEVHGRERVLEDLIENMRRRGVRVNEVRVRDFHIVGNFLHFDVRIKYRVGDKILTYEVRILVLKIDGVWFFSELRIE	1.55
SDIEEMYRINLEIFEHSQQTGDWRMISHMADPNVRISVGDKEIHGRELFEKHLRDTVEKLGAEVHWELNHVRIQGDKLLVRGHLRIKYGDKHETFDIELYADKVDGKWLIHEIRVD	1.44
SDKDHLFKWAVRHLLEFTQTGNWEHMEHYLDPNVRLNFHIDGVSIERHGMEFLKKLLRDLSEDAGLDNINVQLHSFEIQGEKVNIHLKETFNGRHHETHNVVFKFDGRWKLTKSEVFFL	0.913
SDKDKEFEKLFREYLRDLLTGDEESLRRLIDPNARFSYEVGDKTEERHGREEAVRWIIEIRIHSFRLRNSTYIGDKMHLEVESDGQYDGKRRFTEVHIEIILINGRVHEVHVWYV	1.01
SDKEEEAHRLLELLIHWYRTGDFETWRQLMDPHVRNVVDVNGRELHHHGREEVTDSLRFFWEHLGIKHVHFRHVEVQGDKIKLHGQQRVDGQEHQSDFIFIIVDGRVKFIFIHLR	0.649
SDLDDMATKLIHEWIHAELTGDFKRIEELIDPHVRIVIEVNGRRIELIGREELRRWLEEWMEEMRHEIKLTHIEVQGEKTHVDTHLVIRAENHSYHHKTSRIFIIINGRMHSIHVHIR	1.7
SDLDEEARRWLEKHLKNFFTGDWDKFMNNVDPNVRYIVGDKHKIGMESFSKDEKEHRDQYDHLEFRIHHEDTYGEKAVSDMHVTYHINGREIRRRVHLSFLVINGKIKSVRIEFE	0.469
SDLDEVARHATQLIEEVQQTGDWHTLMRLADPNTRLLIGDKVIHGMTELIRILDELYERWGVSKVKVRLHDVRVQGDKVDVDTRSEFNGREVKVRFIIRKVDGRWHLKSVEEHLD	1.12
SDLDHQARRALEETFKAFETGDEHTWNRLVDPHVRLNVNGQEFHGMELIREWFKQDRDELRLKTIELKRVSVQGDYVHIDSTYYYEYNGQHRILEVHIHAVKFDGRWVVKRIHIH	0.662
SDLDHRLRKLAEDLSRILETGNWRLMHKLADPNVKEDINGVEFHGRELLVKWLEDLLKELRVHFRVDHYDIQGNFLRVEITNNVFINGVQKVRDERLEVNMFDGKEKENRVRVE	0.717
SDLDKLAIKIAKILVKNLETGNEKMLEHLLDPHVKLHIDGVTFIGREEVNKWVKHELDEMRSRWEVHDRRTQGEYAHTDSRMYLHINGKDIEIEVTIIFNVVNGRVTFIEHRIH	0.084
SDLDQEMKTWLEETIRLLNTGNEEEWTKLADPNARVEIGDKHYHGWESLEELRKIFGVEKIDYRFTRIEVQGEKADSDVRIEVNGRELHVRLIIVVVNGRHKSMRVIFG	1.99
SDLDRLLEEMAKRFVEVMLTGDEEIMKELIDPNARVDWDGVEIHGWKEISEWLKEEIERQENYRYEFEFRDLDVIGNKAVFFTDLHFNINGRRIRTHSVYKVNVVNGKVKHVHVEIR	1.21
SDLEDEFREFLEEWIKHWLTGDEETLFHLADPHAQIDINGREHHGMDEWMHILLKHLKELGARIEIRIEDIRVQGEKTEVDGNLILHINGRRKELKVELIVRVVNGRLKSIEIRIH	1.02
SDLEEEALNLAREWMHNWVTGNEEREEELLDPNVRSDINGRHFHGRERISRMIRYLLDEIRVHDVKEHDMEIQGEKVRIDGRIDGEVNGKRKILVMHFHIVVIDGVIHSVEVRIE	1.18
SDLEEEINRFLTELLRDWETGNWKAFADLLDPHTRVLIDGKEHHGREIFLEHNHQLGIKHREFELKKFRIFENRVEFDGTLHLVYGDKRVHREIHIIILKIDGRWKITEIRFL	1.54
SDLEERSKSALHHLEEVLRTGDEDESRLMLDPNVRSVYDGREFHGRELVTELLSAFLKHLRIRDVKVERVEMNENEVRWDMKIDGTVGDKRYETHVHIIVVKVNGRWFLKEVRFG	1.39
SDLEEVIRKHIEELEESRRTGDEESLWRLLDPNTLKVVGDKRIHGMEAVAEIETFHDRRVKNATDRLNLREVHTQGDKLTIRGELILDWDGVKINVHVRLEILKFDGRWIIHRIEVK	0.715
SDLEKETEELTRLFLENLVTGDEKTARELIDPHAMTDIGDFHIHGRDRTFRHIEELWRHWGVDRIRIHHDHIDIQGNKSYIEGTIHINGQSRKVHLIIIVFNGRIDKVRMHIR	1.36
SDLEKLAEHTAKEIIHYWLTGDWKSLTELADPHVKLDIDINGRREHHHGWERVIEFFDRFRKRIDHHHIHIDSIDIQGDKVHIDGKLHVHQGDKDLTIKMTIIVIVVDGRIKSLRVIIL	2.13
SDLEMEMKRWMELWLRMFVTGDFRTFLHLADPEYKVSAEGVSSHGRDFHIKELLRWLKEIRIHDFHVKDMDVQGDKAHSDGRHNGIVDGRNRDVNVHNEIVTIDGRLRSVTIRLE	0.534
SDLERDAREAFEHYVNLMRTGNEHIVEHLIDPDVKIEIGDKQVVGREEVLKLFHHLVKHLRWHDTKLHHVHYQGDKMLLDMRLDGTIDGRRLDTRVIWFILKIDGVWFIKYQHYH	1.81
SDLERHISEVFKDIIEMEETGDEEELDKLADPNVRIDIDGVELIGRESLRRWVESVVDQIKGIKKHIVIRHLRVFNGRADSDGELRIHINGKTIVRKVRIHITVVNGRLKEMQFRTE	1.19

Sequence	protease stability score
SDLHHIVDNLLQEWLHARLTGDEDRLLELMDPDAREDVNGRTLVGREDSWKIMLELRFRVEHWHIHRLEIQGDKIDMDIEFDVRFDVDGVPYRLRTRQKIHIDVYNGKIQRLQVHIL	0.325
SDLHRDIQRLLEQVLRSRETGDEDHLEKYADPHARSVFDGVEFHGWEELLRVIRHIRIRRLRLTHIEVQGDKVELDLELDGEINGQRVRVHLEIHSEKINGRWIMTEVVIE	1.21
SDLNQVFRESLEHHLHALETGDWRELYRLADPNVLVIVGDKEIHGMEEWSRILEEEMRRVKGMRIEINPTDIDFQGNKVRAHTRLHVEVDGRSVETDTEHESKKVNGRWILKRLTIR	1.16
SDLREEVKEFLKLLVEAFETGDEEALHELMDPNTRFRYGDKDLIGMKILERWWHELFRHLGVDRFRIELRVHHVTIINGQMHNDGTLIIRQGDKEERFKINLVIEKIDGRWIIHMVIFE	0.893
SDMDEMISRFRREVEHSMQTGDERFDHEMADPHARFWINGVLFHGRHALEMWKEELGVDNFKIRHIHIRDEKIQGNKITLDVEYHLLVNGQQVDLRVILIYRKVNGKWTLEEERLV	0.851
SDQDHLTELAEHLFEYSLETGDEELMDKNFDPNMKLEVGEKHEHGRHVAETFSRRFDVVKSIEMKHVTTINGVAEIDGHIDGNFNGVDIRTDVRLVSLKIDGRWFIHSITFV	0.319
SDRRELLERLAELFLHWWLTGDWKAISDNADPNVRLDIQQGDKHIHDIGRERTEEVLRKIFERFKNLKIEIKRFDMQGDKLHVDSRVTFDGVEFNMEIHNLVVDGRIREIYVHLH	1.54
SDSDHDLEHLLELLMRAYETGNEEEIRRLVDPNARWDINGVELHGWKVMHKFLREMRPTRIRIIIDDSETIGDKMFVDGTIRLDVHIGDKLIHTERRSRLVHRKVDGKWTQTSVIID	0.68
SDSEESSKVALELFKESVETGDERVSQELADPNYRVHYGDKTLHGREAWIRVILEMRWRTVTFKHLDFQGDKVRIEGEILGEYNGVETNFSTTLNVLKINGQWFLHSVHIQ	1.49
SDSEKVSREAWELMLRDHETGDEEAFQNNVDPHTRIHINGVDYHGWRDFVDLMRELRIEHVTLRDYRVIGNKMHIHGQVHGEIDGRRINMHVTIIARKINGRWILEHSIFV	1.97
SDTEHDARRVIEELSKALLTGDWRRIEELLDPNTRWVFNGQEFHGMEIVIKVLIHLRRHMTHVEFHDIHTIDGRVHSDTEFDVSLIINGKTERTRVHVEFIIRKVNGRWRIEEVRFE	2.25
SDVDDMAHKMATLLIDLLETGDWREIRKFADPNVRIEIGDKEYHGMDYHLKHFRDLGWELHLRVERIDVVNGRILIHQEVELRFDGRHDHRKHTLIIEKIDGKWRFNEMIIS	1.09
SDVDEKMETFLTLLFELIYTGDEEVIEKLFDPNVQLDVNGQIYHGMENVIEFVHQVKRHIRWKTVQIRHYRTQGEWAYSQVEVTGTVNGQSHRFEIHIDIWVINGKLKHIKKDIE	2.01
SDVEEMLHRIARLIVHNLFTGDWEDLVRMMDPHARYIVNGKESVGWRRVTEMLRRHHEELRIREIRIRHIEVYNGKAELHLEVNEEVNGREVSLDTRLHVLTINGVIRSIHIEVE	0.719
SDVLESTKSFLRFFVHAMITGNEEELSRNLDPNVRLLFNGVNYHGMEELVRLLIELGIKIHEWHTHDLKFQGEKLYYLGRRDGEVNGRRSEEEVEFIIFKFNGRWFLHEMRIH	0.627
SDWDEWTKRMLDILIEALETGDEEVLSRLIDPNMRLDINGQEFHGREVILRHLITEIQRADHVEFRIEDRDLIDGRVYMEVEKIIHINGVEFRHHVLIIIEKVDGRWYINSVHVR	2.46
SDWDKITKEMAELILTAEETGDFKTLWRLMDPNVKLNIGDKTHHGREEYLKWMHEHLKKVPNLTLKLRDVHVQGDKVHLRVEVEIGDKTIDSEIHLEIINGRIEHLRIIDL	0.957
SDWEDLVRMAFHHFIHSMRTGDEDIIHQLLDPEVKINVGDKVIHGREQAFDYIHTLVNRADHIRFRLDHLDVQGDFIEIRTTVDLTYGDKHHRMEVTFFSRKVDGVWLIERVQIK	1.27
SDWNEFLIEVAELLLRWLSTGDEESFHRYVDPRVRLEFNGKELHGREELARFLRHLRWILDHLEFTSREDQGEKFRVEGKSHGHLFFENHFERHDLKNDLNLILVNGRIKEISLRLE	1.42
SDYEKEVLDYAHTFLHAFLTGNEFILLKLLDPHVRIEIHFDGVDFLRHGRETFSKRAVDHIREWRVEIRLHDLHVVDGVVHLNTRLHVDYGDKHIHITQHITLFVINGRMKTVHIRHE	1.26
SDYERLFTIAVQLVIDVIQTGNFRELERLLDPNVRVDINGQEFVGREELVHWMHKVIRRADHLEITLRDVELQGDKLVLDMELVERYDGKEYRTRIRVFAHKINGQWYIRTFEVR	1.51
SDYTEVAHEIMDEWSKAILTGDEDTVEELLDPNVRVDINGQEIHGWETIFKKLRRFVDELGIDHVHVNTKRVKLIGNYIHVDGELRYHQGDFHIVRKVRLLIVKINGQWLIREINLK	2.42
SEAEEFARRVIELWIRSILTGNPDMSEKLADPNYKVHFNGVNIVGMEEFYRHLEEWRIHIDDFRIRDVRVQGDKMINDTEERITIKYGDKEIHLDVRLEIIIRKIDGRWHMHSIILH	2.2
SEAEERAEKFIELLTKALLTGDWRMISRMFDPHVRIIIGDKESHGMESLRDTLEHLRFDHINTRIEHVQVQGDWVEIHIRVHMRITVDGKEFHVETQMHYVLIKIDGKWVVREIEIR	2.44
SEAEESARKLTHDILRLFLTGDEDLISRYFDPNVRHHINGQEEHGMEKMVKMLNHMRFRDMHLRDVRIHIIDGVATAHVEGELHGEVNGVRRDIKSELIIITEKFNGRWRLSSISFIIE	0.256

From the NTF2 design screens of Basanta et al. (2020)
